Source: US20250388664A1 (BIOARCTIC, published 2025)

T1: h/m apical domain chimera (SEQ ID NO:112) (human/mouse chimera)
T1 construct: also called chimeric TfR1 consisting of human apical domain grafted on mouse TfR1 ectodomain
T1 chain: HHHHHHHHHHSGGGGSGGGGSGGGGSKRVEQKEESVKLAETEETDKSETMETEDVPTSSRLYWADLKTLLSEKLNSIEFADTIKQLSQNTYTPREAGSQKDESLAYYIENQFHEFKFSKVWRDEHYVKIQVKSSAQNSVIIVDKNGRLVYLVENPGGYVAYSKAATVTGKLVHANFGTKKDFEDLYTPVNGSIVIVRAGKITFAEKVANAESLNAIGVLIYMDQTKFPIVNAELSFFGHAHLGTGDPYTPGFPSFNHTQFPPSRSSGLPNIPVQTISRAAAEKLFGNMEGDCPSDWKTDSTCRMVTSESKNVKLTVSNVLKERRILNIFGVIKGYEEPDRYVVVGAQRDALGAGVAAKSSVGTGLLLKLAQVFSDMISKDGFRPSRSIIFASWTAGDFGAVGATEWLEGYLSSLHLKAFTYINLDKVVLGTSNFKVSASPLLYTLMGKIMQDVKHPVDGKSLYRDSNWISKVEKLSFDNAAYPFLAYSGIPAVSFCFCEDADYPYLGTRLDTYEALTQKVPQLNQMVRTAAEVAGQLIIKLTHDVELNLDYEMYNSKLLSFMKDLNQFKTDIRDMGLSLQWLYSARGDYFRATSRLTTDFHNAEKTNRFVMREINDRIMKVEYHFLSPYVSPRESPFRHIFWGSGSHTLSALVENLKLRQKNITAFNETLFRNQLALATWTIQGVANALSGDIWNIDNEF

B1: 26D3 (antibody, V domains shown)
VH: EVQLQQFGVELVKPGASVKISCKASGYIFTDYNMDWVKQSHGKSLEWIGDINPDYDTTSYNEKFKGKATLTVDKSSSTAYMELRSLTSEDTAVYYCARGGYSGSSYYHPMDYWGQGTSVTVSS
VL: DIVMSQSPSSLAVSVGEKITMSCKSSQSLLYSTNQKNYLAWYQQKPGQSPELLIYWASTRESGVPDRFTGSGSGTDFTLTISNVRAEDLAVYYCQQYFIYPRTFGGGTKLEIK
notes: also called mouse antibody 26D3; clone 26D3
B2: H2L7-K12V/R71A/R83T (antibody, human IgG1, kappa)
heavy: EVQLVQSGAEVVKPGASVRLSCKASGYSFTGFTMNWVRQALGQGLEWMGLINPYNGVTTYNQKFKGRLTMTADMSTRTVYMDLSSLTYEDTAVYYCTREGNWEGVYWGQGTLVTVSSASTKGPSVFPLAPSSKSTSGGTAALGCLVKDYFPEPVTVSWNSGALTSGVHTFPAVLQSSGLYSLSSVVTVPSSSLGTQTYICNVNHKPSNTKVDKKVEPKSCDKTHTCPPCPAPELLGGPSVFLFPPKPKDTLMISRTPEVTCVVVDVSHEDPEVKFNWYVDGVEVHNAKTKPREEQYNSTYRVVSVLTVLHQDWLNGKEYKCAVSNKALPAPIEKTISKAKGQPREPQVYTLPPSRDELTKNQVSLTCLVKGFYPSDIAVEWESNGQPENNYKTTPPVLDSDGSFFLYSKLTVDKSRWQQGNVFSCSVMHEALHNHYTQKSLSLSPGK
light: EIVLTQSPLSLSVTLGQSASISCRSSQSLLDSNGKTYLHWFILRPGQSPRRLIYLVSILDSGVPDRFSGSGSGTDFTLKISRVEAEDVGVYYCVQGTHFPFTFGSGTKLEIKRTVAAPSVFIFPPSDEQLKSGTASVVCLLNNFYPREAKVQWKVDNALQSGNSQESVTEQDSKDSTYSLSSTLTLSKADYEKHKVYACEVTHQGLSSPVTKSFNRGEC
notes: VH variant of H2L7; VL and constant domains identical to H2L7
B3: H2L7-K12V/R83T (antibody, human IgG1, kappa)
heavy: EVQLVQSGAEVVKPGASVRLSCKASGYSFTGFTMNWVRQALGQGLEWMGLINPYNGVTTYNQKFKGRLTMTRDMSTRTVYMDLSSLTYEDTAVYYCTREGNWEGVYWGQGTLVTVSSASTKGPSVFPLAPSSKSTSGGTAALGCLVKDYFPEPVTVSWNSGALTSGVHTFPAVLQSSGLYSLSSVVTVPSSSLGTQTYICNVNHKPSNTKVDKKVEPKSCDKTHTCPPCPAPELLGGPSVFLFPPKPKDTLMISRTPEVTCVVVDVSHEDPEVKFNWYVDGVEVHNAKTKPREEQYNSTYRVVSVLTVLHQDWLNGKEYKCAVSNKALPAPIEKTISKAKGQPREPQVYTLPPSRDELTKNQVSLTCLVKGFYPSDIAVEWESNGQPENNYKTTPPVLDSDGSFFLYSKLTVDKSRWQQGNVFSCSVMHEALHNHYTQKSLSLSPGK
light: EIVLTQSPLSLSVTLGQSASISCRSSQSLLDSNGKTYLHWFILRPGQSPRRLIYLVSILDSGVPDRFSGSGSGTDFTLKISRVEAEDVGVYYCVQGTHFPFTFGSGTKLEIKRTVAAPSVFIFPPSDEQLKSGTASVVCLLNNFYPREAKVQWKVDNALQSGNSQESVTEQDSKDSTYSLSSTLTLSKADYEKHKVYACEVTHQGLSSPVTKSFNRGEC
notes: as for B2
B4: H2L7-R71A/R83T (antibody, human IgG1, kappa)
heavy: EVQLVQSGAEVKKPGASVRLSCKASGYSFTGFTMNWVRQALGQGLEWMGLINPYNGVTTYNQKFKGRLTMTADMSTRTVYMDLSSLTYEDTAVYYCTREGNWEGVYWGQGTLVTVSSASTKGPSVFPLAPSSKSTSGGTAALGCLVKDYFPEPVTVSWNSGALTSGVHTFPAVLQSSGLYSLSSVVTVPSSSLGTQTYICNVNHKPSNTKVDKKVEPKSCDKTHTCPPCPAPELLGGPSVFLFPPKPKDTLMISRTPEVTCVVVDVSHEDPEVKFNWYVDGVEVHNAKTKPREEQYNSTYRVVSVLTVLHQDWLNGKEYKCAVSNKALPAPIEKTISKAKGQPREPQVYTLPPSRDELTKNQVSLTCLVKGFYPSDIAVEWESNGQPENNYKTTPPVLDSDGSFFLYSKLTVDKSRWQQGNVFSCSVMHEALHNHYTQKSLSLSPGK
light: EIVLTQSPLSLSVTLGQSASISCRSSQSLLDSNGKTYLHWFILRPGQSPRRLIYLVSILDSGVPDRFSGSGSGTDFTLKISRVEAEDVGVYYCVQGTHFPFTFGSGTKLEIKRTVAAPSVFIFPPSDEQLKSGTASVVCLLNNFYPREAKVQWKVDNALQSGNSQESVTEQDSKDSTYSLSSTLTLSKADYEKHKVYACEVTHQGLSSPVTKSFNRGEC
notes: as for B2
B5: H2L7-R71A (antibody, human IgG1, kappa)
heavy: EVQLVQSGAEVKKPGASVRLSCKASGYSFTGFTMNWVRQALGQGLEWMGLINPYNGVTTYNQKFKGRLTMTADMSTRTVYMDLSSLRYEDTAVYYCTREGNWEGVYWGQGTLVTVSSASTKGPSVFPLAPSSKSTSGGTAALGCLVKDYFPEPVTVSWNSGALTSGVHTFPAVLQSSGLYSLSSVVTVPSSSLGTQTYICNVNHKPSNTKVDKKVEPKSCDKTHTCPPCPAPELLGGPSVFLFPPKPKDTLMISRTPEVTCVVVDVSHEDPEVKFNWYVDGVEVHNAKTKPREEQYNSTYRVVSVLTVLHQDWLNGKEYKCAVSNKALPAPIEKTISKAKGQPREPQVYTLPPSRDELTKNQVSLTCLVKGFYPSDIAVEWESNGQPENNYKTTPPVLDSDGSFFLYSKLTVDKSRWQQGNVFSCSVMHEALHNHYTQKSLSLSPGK
light: EIVLTQSPLSLSVTLGQSASISCRSSQSLLDSNGKTYLHWFILRPGQSPRRLIYLVSILDSGVPDRFSGSGSGTDFTLKISRVEAEDVGVYYCVQGTHFPFTFGSGTKLEIKRTVAAPSVFIFPPSDEQLKSGTASVVCLLNNFYPREAKVQWKVDNALQSGNSQESVTEQDSKDSTYSLSSTLTLSKADYEKHKVYACEVTHQGLSSPVTKSFNRGEC
notes: as for B2

How the values were obtained:
[1] = target: T1, h/m apical domain chimera (SEQ ID …); assay: indirect ELISA: plate coated with 1 µg/ml h/m apical domain chimera, mouse IgG titrated, anti-mouse IgG-HRP; x axis printed as 'TfR (ng/ml)'
Experimental: Plasma samples serially diluted from a starting dilution of 1/450 or hybridoma supernatants diluted 1/2 were added to the plates (50 μl/well; dilution buffer: PBS with 0.1% BSA and 0.05% TWEEN®-20) and incubated for 2 h at room temperature and then the plates were washed four times. […] After another wash (as above), 50 μl/well TMB substrate (K-Blue® Aqueous, Neogen) was added, and the reaction was stopped after 10-15 min with 50 μl/well of 0.5 M H₂SO₄. The optical density at 450 nm was read using a plate reader (Tecan). The endpoint titers were defined as the dilution above the average of the blank wells (background) plus 3 standard deviations of the blank wells.
In the ELISA experiment, human, mouse or three different chimeric TfR1 receptors were used to coat ELISA plates (FIGS. 30A-30E). The ELISA protocol was slightly modified as follows from the indirect ELISA described in Example 15. […] The coated plates were then blocked. Dilution series of mouse IgG of the analyzed antibodies were prepared in PBS and incubated on the ELISA plates. Unbound antibodies were then washed off before incubating wells with a HRP-conjugated secondary, anti-mouse-IgG for 1 h. Plates were then washed again before addition of HRP substrate TMB for development and detection of antibody binding to the wells. TMB development was stopped by adding 0.5 M H₂SO₄ to the wells and ELISA responses measured as the OD at 450 nm in an ELISA plate reader.

AβpE3-42 protofibrils [2] = target: T2, AβpE3-42 protofibrils (UniProt P05067 674-713, pyroglutamate at position 3 (N-terminal residue)); assay: SPR, protofibrils immobilised, antibody injected, 1:1 fit, apparent
T2 construct: range 3-42 (Aβ numbering); Soluble aggregates made from AβpE3-42 peptide, purified in the void peak of SEC; also called AβpE3-42 PF
Experimental: (§1) Single cycle kinetics was also used to measure binding of the antibodies to AβpE3-42 protofibrils. […] Regeneration of the surface between cycles was done by injecting 30 μl 10 mM glycine-HCl pH 1.7. The binding data was fitted to a 1:1 interaction model.
(§2) In all SPR experiments, 1×HBS-EP+ (Cytiva, cat. no. BR100669) was used to dilute antibodies and target antigens. Experiments were performed at 25° C.
(§3) Affinity evaluation and KD determination by surface plasmon resonance: Binding interactions between antigens and antibodies were evaluated by SPR using a Biacore 8K instrument (Cytiva) according to standard procedures.

Aβ1-42 protofibrils = target: T3, Aβ1-42 protofibrils (UniProt P05067 672-713); assay: inhibition ELISA, antigen titrated in solution, AβpE3-40 coat
T3 construct: range 1-42 (Aβ numbering); Soluble aggregates made from Aβ1-42 monomer

Aβ1-40 monomer = target: T4, Aβ1-40 monomer (UniProt P05067 672-711); assay: as above
T4 construct: range 1-40 (Aβ numbering)

AβpE3-42 protofibrils [3] = target: T2, AβpE3-42 protofibrils; assay: as above
AβpE3-40 monomer [4] = target: T5, AβpE3-40 monomer (UniProt P05067 674-711, pyroglutamate at position 3 (N-terminal residue)); assay: as above
T5 construct: range 3-40 (Aβ numbering); Synthetic peptide (Bachem/Anaspec), verified monomeric by SEC; also called monomeric AβpE3-40

AβpE3-40 monomer [5] = target: T5, AβpE3-40 monomer; assay: SPR, antibody immobilised, monomer injected, 1:1 fit
Experimental: Single cycle kinetics with the antibodies immobilized on a CM5 chip was used to measure the binding of the antibodies to the AβpE3-40 monomer. For the measurements, 5 μg/ml of analyte antibody was immobilized on the chip. […] Regeneration of the surface between cycles was done by injecting 30 μl 3 M MgCl₂. The binding data was fitted to a 1:1 interaction model.
as §2, §3

AβpE3-42 protofibrils [6] = target: T2, AβpE3-42 protofibrils; assay: SPR, protofibrils immobilised, antibody injected, 1:1 fit, apparent; binding to AβpE3-42 protofibrils; KD in pM
Experimental: as §1, §2, §3

AβpE3-28 monomer = target: T6, AβpE3-28 monomer (UniProt P05067 674-699, pyroglutamate at position 3 (N-terminal residue)); assay: inhibition ELISA, antigen titrated in solution, AβpE3-40 coat
T6 construct: range 3-28 (Aβ numbering)
Experimental: (§4) The humanized antibodies were incubated at a fixed concentration (0.5 μg/ml) with titrating concentrations of the different Aβ antigens. After incubation for 45 min at 900 rpm to reach equilibrium, the antibody-Aβ samples were added to a blocked and washed ELISA plate with an AβpE3-40 coat (0.5 μM). The samples were incubated on the plate for 25 min without shaking followed by washing, incubation with detection antibody, another washing step and finally incubation with alkaline phosphatase substrate.

Aβ3-28 monomer = target: T7, Aβ3-28 monomer (UniProt P05067 674-699); assay: as above
T7 construct: range 3-28 (Aβ numbering)
Experimental: as §4

T3 sequence (P05067 672-713): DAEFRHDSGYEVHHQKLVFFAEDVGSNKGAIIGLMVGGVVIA
T5 sequence (P05067 674-711): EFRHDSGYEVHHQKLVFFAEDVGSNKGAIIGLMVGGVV
T2 sequence (P05067 674-713): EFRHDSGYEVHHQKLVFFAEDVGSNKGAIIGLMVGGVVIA
T4 sequence (P05067 672-711): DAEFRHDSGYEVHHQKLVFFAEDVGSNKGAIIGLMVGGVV
T7 sequence (P05067 674-699): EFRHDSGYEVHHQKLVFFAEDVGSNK

| Binder | binding result [1] | koff (AβpE3-42 protofibrils [2]) [s⁻¹] | kon (AβpE3-42 protofibrils [2]) [M⁻¹ s⁻¹] | IC50 (Aβ1-42 protofibrils) [nM] | IC50 (Aβ1-40 monomer) [nM] | IC50 (AβpE3-42 protofibrils [3]) [nM] | IC50 (AβpE3-40 monomer [4]) [nM] | Kd (AβpE3-40 monomer [5]) [nM] | koff (AβpE3-40 monomer [5]) [s⁻¹] | kon (AβpE3-40 monomer [5]) [M⁻¹ s⁻¹] | Kd (AβpE3-42 protofibrils [6]) [nM] | IC50 (AβpE3-28 monomer) [nM] | IC50 (Aβ3-28 monomer) [nM] |
| --- | --- | --- | --- | --- | --- | --- | --- | --- | --- | --- | --- | --- | --- |
| B1 | no binding (tested: about 600 ng/ml) |  |  |  |  |  |  |  |  |  |  |  |  |
| B2 |  | 2.45e-05 | 57600 | > 132 | > 500 | 4.9 | 2.29 | 4.04 | 0.000234 | 58700 | 0.427 |  |  |
| B3 |  | 1.62e-05 | 81100 | > 132 | > 500 | 3.71 | 2.27 | 2.2 | 0.00012 | 56200 | 0.2 | 5 | 2260 |
| B4 |  | 2.73e-05 | 57400 | > 132 | > 500 | 5.44 | 2.77 | 4.72 | 0.000235 | 50900 | 0.471 |  |  |
| B5 |  | 2.54e-05 | 67700 | > 132 | > 500 | 4.59 | 2.54 | 4.62 | 0.000225 | 50100 | 0.376 |  |  |
